# In PMC5454105:
# How the values were obtained:
# [1] = target: WipA411 (WipA 33-411) (Legionella pneumophila) (UniProt Q5ZS02); assay: SEC-MALS
# [2] = target: WipA (IcmW-interacting protein A; lpg2718), full-length protein (Legionella pneumophila) (UniProt Q5ZS02); assay: SEC-MALS
substance,measurement,setting,value
WipA411 (WipA 33-411) (from UniProt Q5ZS02 33-411) (domain or fragment),stoichiometry N,[1],2
"WipA (IcmW-interacting protein A; lpg2718), full-length protein (from UniProt Q5ZS02 1-520) (enzyme)",stoichiometry N,[2],2
